This note sets out measurements from patent US20100330090A1.

Assay [1] has as its target recombinant human Par-1 antigen (protease activated receptor-1) (human) (UniProt P25116). In words: BLI (ForteBio Octet), Experiment 1, Fab at 1E-8 M. For orientation: BLI is a label-free optical method that tracks binding on a fibre tip over time.
For assay [2] the target is unchanged. Kind of assay: BLI (ForteBio Octet), Experiment 2, Fab at 2.5E-8 M.

B1: LDS896 (Fab, V domains shown)
VH: EVQLVQSGAEVKKPGSSVKVSCKVSGGTFSNYVFNWVRQAPGQGLEWMGVINPHSGRTRYNQKFKGRVTMTTDTSTSTAYMELRSLTSDDTAVYYCARDDGPSHWYFDVWGQGTTVTVSS
VL: DIVMTQSPLSLPVTPGEPASISCRSSQSLLHRNGNNYLEWYLQKPGQSPRLLIYKISNRFSGVPDRFSGSGAGTDFTLKISRVEAEDVGVYYCFQGSHVPFTFGQGTKLEIK
modifications: Fab constant regions not given
As to B1, in assay [1], the Kd stood at 1.18 nM, the koff amounted to 0.000311 s⁻¹ and the kon was 265000 M⁻¹ s⁻¹.

B2: LDW653 (Fab, V domains shown)
VH: QVQLVQSGAEVKKPGASVKVSCKASGYTFNSYYMNWVRQAPGQGLEWMGVIDPHGGRTRYNQKFKGRVTMTTDTSTSTVYMELSSLRSEDTAVYYCARDDGPSMWYFDVWGQGTTVTVSS
VL: DIVMTQSPLSLPVTPGEPASISCRSSQSLLHRNGNNYLEWYLQKPGQSPRLLIYKISNRFSGVPDRFSGSGAGTDFTLKISRVEAEDVGVYYCFQGSSVPFTFGQGTKLEIK
modifications: Fab constant regions not given
As to B2, in assay [2], the Kd is 1.13 nM, the koff came to 0.000293 s⁻¹ and the association rate constant (kon) came out at 259000 M⁻¹ s⁻¹.

B3: LDS900 (Fab, V domains shown)
VH: QVQLVQSGAEVKKPGASVKVSCKASGYTFNSYYMNWVRQAPGQGLEWMGVIDPHGGRTRYNQKFKGRVTMTTDTSTSTAYMELRSLTSDDTAVYYCARDDGPSLWYFDVWGQGTTVTVSS
VL: DIVMTQSPLSLPVTPGEPASISCRSSQSLLHRNGNNYLEWYLQKPGQSPRLLIYKISNRFSGVPDRFSGSGAGTDFTLKISRVEAEDVGVYYCFQGSHVPFTFGQGTKLEIK
modifications: Fab constant regions not given
On to B3, for which, in assay [2], the Kd turned out to be 1.47 nM, the koff stood at 0.000289 s⁻¹ and the kon was found to be 196000 M⁻¹ s⁻¹.

For orientation: Kd means the concentration at which binding is half-saturated. As usually defined, the koff is the first-order rate constant of dissociation. Broadly, the kon is the second-order rate constant of association.
